The stoichiometry N is the number of molecules, sites or subunits per partner or assembly.

Series [1] deals with the molecule itself. Briefly: native gel or EMSA; blue native gel electrophoresis of recombinant PKM2 (WT or mutant) or PKM1, alone or with FBP and/or scFv 5; resolves dimer and tetramer forms.
Series [2] addresses T1, pyruvate kinase M2 (PKM2), endogenous in 293T cells (Homo sapiens (Human)., UniProt P14618).
T1 construct: pyruvate kinase isoform M2 (PKM2), product of the PKM gene with exon 10; also called 55-kD protein; source: endogenous, HEK293T lysate
Briefly: affinity purification with mass spectrometry; lysate (1% Triton X-100) of 293T cells expressing FLAG/Strep-tagged intrabody; anti-FLAG M2 beads 2 h at 4°C, elution with 3X FLAG peptide, then Strep-Tactin; SDS-PAGE with silver stain, bands identified by MALDI TOF/TOF. The following applies: partners not purified.

The target in series [3] is T2, recombinant human PKM2, wild type (human, UniProt P14618).
T2 construct: Runs as dimer and tetramer on blue native gels; also called WT PKM2; His-hPKM2; source: E. coli BL21 (DE3), purified (Ni-NTA)
Briefly: native gel or EMSA; blue native gel electrophoresis; recombinant scFv 5 mixed with recombinant PKM2 (WT or mutant) or PKM1 at various molar ratios, reaction volume 20 μl. To be noted: both partners purified. For orientation: Mobility shift assays separate free from complexed probe on a gel.

T1 sequence (P14618 whole entry, canonical isoform): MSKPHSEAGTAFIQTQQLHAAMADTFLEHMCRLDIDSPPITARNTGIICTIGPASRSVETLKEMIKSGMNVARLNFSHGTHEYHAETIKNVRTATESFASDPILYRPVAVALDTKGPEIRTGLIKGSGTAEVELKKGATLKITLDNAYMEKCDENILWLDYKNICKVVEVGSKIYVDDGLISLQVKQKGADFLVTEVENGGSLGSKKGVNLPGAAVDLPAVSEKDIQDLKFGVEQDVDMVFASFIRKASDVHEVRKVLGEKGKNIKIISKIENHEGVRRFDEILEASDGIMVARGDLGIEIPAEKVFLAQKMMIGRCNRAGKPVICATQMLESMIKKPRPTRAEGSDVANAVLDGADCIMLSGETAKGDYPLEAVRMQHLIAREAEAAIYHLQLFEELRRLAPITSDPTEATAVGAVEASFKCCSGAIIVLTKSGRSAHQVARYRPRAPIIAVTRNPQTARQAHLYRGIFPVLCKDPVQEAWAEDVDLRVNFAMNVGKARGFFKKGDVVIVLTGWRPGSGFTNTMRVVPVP
T2 sequence (P14618 whole entry): as the sequence (P14618 whole entry, canonical isoform) above

B1: recombinant PKM2 (K422R) (enzyme)
chain: not shown
notes: human pyruvate kinase isoform M2 with K422R; also called stably tetrameric PKM2 mutant; source: recombinant; WT and mutant PKM2 proteins from E. coli BL21 (DE3), purified (Ni-NTA)
B1: the “stoichiometry N” value in series [1] amounted to 4.

B2: intrabody 5 (IB5) (scFv, V domains shown)
VH: QVQLVETGPGLVKPSETLSLRCTVSGGSFDNYYWNWIRQPPGKGLEYIGYVFPSTGATNYNPSLGSRVTISLDTSKNQFSLTLTSVTTADTAIYYCVRSGHDLWTGSTWFDPWGQWTTVTVSS
VL: EIVLTQSPGTLSLSPGERATLSCRASQSVSSSYLAWYQQKPGQAPRLLIYGASSRATGIPDRFSGSGSGTDFTLTISRLEPEDIAVYYCQQRSNWPRTFGQGTKVEIK
notes: human VH and VL joined by a flexible peptide linker, from a naive human combinatorial scFv library; Expressed without a secretion leader from an EF1alpha lentiviral vector; The tandem Strep-tag was added for the target immunoprecipitation construct; also called clone 5; scFv 5; source: HEK293T, infected with intrabody lentivirus, in lysate; not shown: FLAG, C-terminal, kept
Regarding B2, the binding result in series [2] is “binds”.

B3: recombinant monovalent scFv 5 (corresponding to IB5) (scFv, V domains shown)
VH: B2 VH
VL: B2 VL
notes: as the scFv of m1; also called purified scFv 5; recombinant scFv; source: E. coli Rosetta (DE3)pLys, pET28a, purified (Ni-NTA)
B3: in series [3], the binding result was “binds”.

B4: recombinant PKM2 (K270M) (enzyme)
chain: not shown
notes: human pyruvate kinase isoform M2 with K270M, plasmid pET28a-His-hPKM2 (K270M); source: E. coli BL21 (DE3), purified (Ni-NTA)
Turning to B4, the “stoichiometry N” value in series [1] is 2.

For the origin of these results see article PMC6586363, “Phenotypic selection with an intrabody library reveals an anti-apoptotic function of PKM2 requiring Mitofusin-1” (PLoS Biology, 2019).
